Experimental findings from paper PMC9898740, “Spatial control of self-organizing vascular networks with programmable aptamer-tethered growth factor photopatterning” are described below.

This data set has as its target VEGF165 (UniProt P15692-4 27-191). The data set is described as follows: hydrogel sequestration, anti-VEGFA immunofluorescence (confocal); aptamer tethered in GelMA hydrogel, 10 ng VEGF 1 h; GelMA region without aptamer about 16% of the aptamer-region signal; 0.1% BSA in DPBS, 37 °C, 10 ng VEGF in 1 ml for 1 h, wash, 24 h at 37 °C; 25 µM aptamer in 5% GelMA. Conditions: protein: commercial; chain copies: 2; single strand, covalently tethered in GelMA hydrogel.

Chain of VEGF165 (P15692 other isoform, or with tags, fused parts or gaps): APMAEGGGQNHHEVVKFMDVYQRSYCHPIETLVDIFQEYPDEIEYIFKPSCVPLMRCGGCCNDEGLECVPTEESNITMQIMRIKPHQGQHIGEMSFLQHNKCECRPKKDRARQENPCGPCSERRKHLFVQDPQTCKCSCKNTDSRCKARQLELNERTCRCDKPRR

CGATCGTATCAGTCCACAAGCCCGTCTTCCAGACAAGAGTGCAGGGC (ssDNA, 5'-acrydite) [VEGF165-specific 5'-acrydite aptamer]: the binding result was “binds”.
